Reference: PMC8334348

Molecular target: Brucella abortus peptidoglycan hydrolase inhibitor A (PhiA), mature periplasmic form (Brucella abortus)
Assay: SEC-MALS

Brucella abortus peptidoglycan hydrolase inhibitor A (PhiA), mature periplasmic form (natural protein)
stoichiometry N: 4
